The test concerns the target T1, CCK2R on AR42J cells (UniProt P30553 1-452, limits assumed).
T1 construct: whole, on cells
T1 sequence (looked up): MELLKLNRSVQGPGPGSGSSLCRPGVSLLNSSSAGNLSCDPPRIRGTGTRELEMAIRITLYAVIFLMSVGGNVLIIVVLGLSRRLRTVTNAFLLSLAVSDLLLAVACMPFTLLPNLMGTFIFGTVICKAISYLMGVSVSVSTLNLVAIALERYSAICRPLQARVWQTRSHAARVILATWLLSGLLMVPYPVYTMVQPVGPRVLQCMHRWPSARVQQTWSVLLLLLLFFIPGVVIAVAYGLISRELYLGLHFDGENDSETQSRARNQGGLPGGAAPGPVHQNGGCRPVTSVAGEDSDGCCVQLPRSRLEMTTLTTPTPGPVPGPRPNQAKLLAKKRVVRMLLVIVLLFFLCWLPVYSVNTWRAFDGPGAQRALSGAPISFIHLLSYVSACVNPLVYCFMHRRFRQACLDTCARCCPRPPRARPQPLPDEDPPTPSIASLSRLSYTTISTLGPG
Kind of test: displacement of ^125I-BH-CCK8 from AR42J cells.

Protocol: For these experiments, AR42J cells were expanded in vitro in 175 mm flasks and grown to subconfluence in the growth medium containing 10% FCS. All binding assays were performed 36-48 h after seeding the cells in culture medium containing 10% FCS and 2% glutamine. Before the start of the binding assays, the cells in culture were washed with Hanks Balanced salt solution (HBSS) (GIBCO) containing 0.1% BSA and 25 mM HEPES (Sigma) and scraped with a rubber policeman into conical tissue culture polystyrene tubes. Cells were centrifuged at 500 g for 5 min and resuspended in HBSS at a concentration of 2×10⁶ cells/ml. Aliquots (˜1.0 ml) of suspended cells in polystyrene tubes were used in the binding assays. […] Binding assays were performed at 37° C. for 30-60 min at pH 6.5 (optimal for binding).
Non-specific binding was determined in the presence of 1000× excess of the non-labeled homologous peptide. At the end of the incubation, the cells were pelleted and washed twice with 1 ml of fresh ice-cold HBSS plus 0.1% BSA. Cell pellets were counted for ¹²⁵I in a gamma counter with ˜70% efficiency for ¹²⁵I.

B1: full-length recombinant human PG1-80 (rhPG) (ligand)
chain: SWKPRSQQPDAPLGTGANRDLELPWLEQQGPASHHRRQLGPQGPPHLVADPSKKQGPWLEEEEEAYGWMDFGRRSAEDEN
notes: Expressed in E. coli from pET32 as a thioredoxin fusion and purified; also called recombinant human progastrin; progastrin
Regarding B1, the binding result is “no binding”.

These data come from US20080187577A1 (University of Texas, published 2008).
